Laboratory results taken from article PMC5603541.

System: BoHV-1 whole virus (purified virion) (Bovine herpesvirus 1 (BK1952, CVCC; Methods also says field isolate from China))
Assay: ELONA

GCTGCAATACTCATGGACAGGGCGGCGGGGTGGGGTGGGCGGTTTGATTCCCATGGGTGCGTCTGGAGTACGACCCTGAA [IBRV-A4]
Kd: 3.52 nM
